We go through 13 molecules from patent US20130196320A1, “METHOD FOR IMPROVING CLEAVAGE OF DNA BY ENDONUCLEASE SENSITIVE TO METHYLATION” (CELLECTIS, priority 2010, published 2013).

The target in data set [1] is T1, ADCY9 meganuclease (I-CreI-derived) (Artificial Sequence).
T1 chain: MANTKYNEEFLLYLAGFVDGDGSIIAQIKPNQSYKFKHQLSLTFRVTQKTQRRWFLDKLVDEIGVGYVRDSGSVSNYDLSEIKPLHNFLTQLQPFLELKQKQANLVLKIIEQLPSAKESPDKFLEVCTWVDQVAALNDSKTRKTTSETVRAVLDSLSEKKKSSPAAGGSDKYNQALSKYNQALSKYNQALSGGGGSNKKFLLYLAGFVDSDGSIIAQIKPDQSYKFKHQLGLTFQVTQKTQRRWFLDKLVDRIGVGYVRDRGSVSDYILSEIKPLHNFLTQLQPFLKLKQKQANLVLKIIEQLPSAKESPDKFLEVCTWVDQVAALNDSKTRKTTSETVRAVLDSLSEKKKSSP
Put plainly: FP; 10 mM CaCl2, 150 mM NaCl, pH8, 25 C.

Data set [2] addresses T2, I-CreI wild type (Chlamydomonas reinhardtii, UniProt P05725 SEQ:1-163).
T2 sequence: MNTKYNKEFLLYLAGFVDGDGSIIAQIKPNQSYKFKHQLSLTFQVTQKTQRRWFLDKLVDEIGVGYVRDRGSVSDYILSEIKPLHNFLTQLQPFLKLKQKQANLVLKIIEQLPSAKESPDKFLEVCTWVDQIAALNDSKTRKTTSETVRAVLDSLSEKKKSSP
Put plainly: FP; 400 mM NaCl, 10 mM CaCl2, pH8, 25 C; no saturation. To be noted: tags: C-terminal 6xHis, E. coli BL21; chain copies: 2 (inferred); label: 5' fluorescein on forward strand. On the procedure:
(§1) FIG. 4: Spectrofluorimetric titration of fluorescein-labeled C1234 by I-Cre I wild type. 25 nM of C1234 duplex was incubated with increasing concentrations of I-Cre I [from 0 to 400 nM, only 0-80 nM shown] in binding buffer (10 mM Tris-HCl, 400 mM NaCl, 10 mM CaCl₂, 10 mM DTT, pH8) at 25° C. After 30 minutes incubation, the fluorescence anisotropy of the mixture was recorded with a Pherastar Plus (BMG Labtech) operating in fluorescence polarization end point mode with excitation and emission wavelengths set to 495 and 520 nm respectively. Normalized fluorescence anisotropy is plotted as a function of active I-Cre I concentration. Apparent dissociation constant were determined by fitting raw data by an hyperbolic function (Aₓ=(A_{∞}*[Meganuclease])/(Kd+[Meganuclease]) with Aₓ, the fluorescence anisotropy value obtained at a given meganuclease concentration, A_{∞}, the fluorescence anisotropy value obtained at saturating concentration of meganuclease and Kd the dissociation constant of the equilibrium studied).
(§2) Fluorescein labeled C1234 oligonucleotides were synthesized and HPLC-purified by Eurogentec. […] C 1234 duplex and fluorescein final concentrations were assessed by spectrophotometry using their respective extinction coefficients ε₂₆₀ₙₘ=62900 M⁻¹ cm⁻¹ and ε₄₉₅ₙₘ=83000 M⁻¹ cm⁻¹. […]

For data set [3], the target named is T2, I-CreI wild type. Kind of data set: FP; 400 mM NaCl, 10 mM CaCl2, pH8, 25 C. The note with it: tags: C-terminal 6xHis, E. coli BL21; chain copies: 2 (inferred); label: 5' fluorescein on forward strand. On the procedure:
as §1
Fluorescein labeled C1234 oligonucleotides were synthesized and HPLC-purified by Eurogentec. To prepare C 1234 duplex corresponding to I-Cre I double strand DNA wild type target, C1234 forward (SEQ ID NO: 31, “a” strand below) labeled with Fluorescein on its 5′ end was mixed with 1 equivalent of C1234_reverse (SEQ ID NO: 32, “b” strand below) in 100 mM Tris-HCl, 50 mM EDTA, 150 mM NaCl, pH8. The mixture was heated to 95° C. for 2 min and then cooled down to 25° C. over 1 hour. C1234 duplex was eventually purified by anion exchange chromatography using a miniQ PE column (GE healthcare) pre-equilibrated with buffer A (20 mM Tris-HCl, pH7.4). Single stranded oligonucleotides and other contaminants were first discarded using a 0 to 360 mM NaCl step gradient and elution of pure C1234 duplex was performed with a 360-1000 mM NaCl linear gradient (5 column volumes). C 1234 duplex and fluorescein final concentrations were assessed by spectrophotometry using their respective extinction coefficients ε₂₆₀ₙₘ=62900 M⁻¹ cm⁻¹ and ε₄₉₅ₙₘ=83000 M⁻¹ cm⁻¹. […]

Data set [4] concerns the target T1, ADCY9 meganuclease (I-CreI-derived). Kind of data set: FP; apparent Kd, sigmoidal binding; 10 mM CaCl2, 150 mM NaCl, pH8, 25 C.
Data set [5] deals with T3, XPC4 meganuclease (I-CreI-derived) (Artificial Sequence).
T3 chain: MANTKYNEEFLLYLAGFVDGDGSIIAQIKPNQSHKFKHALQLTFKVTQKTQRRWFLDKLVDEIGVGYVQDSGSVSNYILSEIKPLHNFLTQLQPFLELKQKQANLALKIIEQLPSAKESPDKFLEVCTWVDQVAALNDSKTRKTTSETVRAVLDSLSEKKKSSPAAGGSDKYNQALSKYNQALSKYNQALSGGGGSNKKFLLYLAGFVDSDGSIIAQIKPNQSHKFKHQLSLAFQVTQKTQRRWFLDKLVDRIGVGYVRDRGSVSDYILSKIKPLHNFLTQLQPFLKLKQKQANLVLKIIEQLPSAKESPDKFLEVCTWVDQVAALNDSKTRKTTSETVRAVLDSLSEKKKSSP
Kind of data set: FP; 10 mM CaCl2, 150 mM NaCl, pH8, 25 C.

In data set [6] the target is T3, XPC4 meganuclease (I-CreI-derived). Put plainly: FP; 10 mM CaCl2, 150 mM NaCl, pH8, 25 C; not significantly different from unmethylated.
For data set [7], the target named is T2, I-CreI wild type. Kind of data set: FP; 10 mM Tris pH8, 400 mM NaCl, 10 mM CaCl2, 10 mM DTT, 25 C. The note with it: tags: C-terminal 6xHis, E. coli BL21; chain copies: 2 (inferred); label: 5' fluorescein on forward (a) strand. On the procedure: as §1, §2
The next data set has as its target T4, I-CreI D75N (UniProt P05725 SEQ:1-167).
T4 chain: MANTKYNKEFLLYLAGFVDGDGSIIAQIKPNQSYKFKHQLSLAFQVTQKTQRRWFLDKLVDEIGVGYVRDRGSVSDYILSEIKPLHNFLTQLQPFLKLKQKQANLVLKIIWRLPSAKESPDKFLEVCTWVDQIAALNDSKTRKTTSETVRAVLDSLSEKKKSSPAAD
Put plainly: cleavage_in_vitro; relative to unmethylated C1221. The note with it: tags: C-terminal 6xHis, E. coli BL21; chain copies: 2 (inferred). As to the method: FIG. 3: In vitro cleavage of unmethylated or methylated C1221 by I-CreI D75N. 50 nM C1221 containing either 0, 1, 2 or 3 methylated CG was incubated with increasing concentrations of I-CreI D75N (0 to 2 μM) in reaction buffer (10 mM Tris-HCl, 150 mM NaCl, 10 mM MgCl₂, pH8) for an hour at 37° C. The reaction was stopped and cleaved and uncleaved C1221 (top and bottom panel respectively) were quantify and plotted as function of I-CreI D75N concentration.
To investigate the influence of C1221 methylation on the nuclease activity of I-CreI, an in vitro cleavage assay with either unmethylated or fully methylated C1221 duplex (SEQ ID NOs: 4-5 and 12-13 respectively) was performed. A constant amount of C1221 duplex (50 nM) was incubated with increasing concentration of I-CreI (0 to 2 μM) in a total volume of 25 μL of reaction buffer (10 mM Tris-HCl, 150 mM NaCl, 10 mM MgCl₂, pH8). Cleavage reaction was allowed to proceed 1 hour at 37° C. and then stopped by addition of 5 μL of 6× stop buffer (45% glycerol, 95 mM EDTA, 1.5% (w/v) SDS, 1.5 mg/mL proteinase K and 0.048% (w/v) bromophenol blue) followed by an hour incubation at 37° C. Cleaved and uncleaved DNA products were separated by PAGE using a TGX Any kD precast gel (Bio-Rad), stained with SYBR Green and then quantified using Quantity One software (Bio-Rad).
To investigate the influence of C1221 methylation on the nuclease activity of I-CreI D75N, in vitro cleavage assay with C1221 duplex containing either 0, 1, 2 or 3 methylated CG (SEQ ID NOs: 4-5, 6-7, 8-9, 10-11 respectively) was performed, according to the procedure described for I-CreI wild type.

B1: ADCY9.1 (dsDNA)
DNA 1: CCCAGATGTCGTACAGCAGCTTGG
DNA 2: CCAAGCTGCTGTACGACATCTGGG
B1 returned a Kd in data set [1] of 190 nM.

B2: C1234_Me full (dsDNA)
DNA 1: TCAAAACGTCGTGAGACAGTTTGG
DNA 2: CCAAACTGTCTCACGACGTTTTGA
modifications: 5mC at -6a, -3a, -5b, -2b
Take B2: in the data set with I-CreI wild type [2], the Kd is more than 1000 nM.

B3: C1234_Me-6a/-3a (dsDNA)
DNA 1: TCAAAACGTCGTGAGACAGTTTGG
DNA 2: CCAAACTGTCTCACGACGTTTTGA
modifications: 5mC at -6a, -3a
As to B3, in the data set with I-CreI wild type [3], the Kd was not above 2.5 nM.

B4: ADCY9.1_Me -3a/-2b (dsDNA)
DNA 1: CCCAGATGTCGTACAGCAGCTTGG
DNA 2: CCAAGCTGCTGTACGACATCTGGG
modifications: 5mC at -3a, -2b
For the molecule B4, in data set [4], the Kd came to 431 nM.

B5: XPC4.1 (dsDNA)
DNA 1: TCGAGATGTCACACAGAGGTACGA
DNA 2: TCGTACCTCTGTGTGACATCTCGA
Molecule B5 returned a Kd in data set [5] of 108 nM.

B6: XPC4.1_Me -11a/-10b & +10a/+11b (dsDNA)
DNA 1: TCGAGATGTCACACAGAGGTACGA
DNA 2: TCGTACCTCTGTGTGACATCTCGA
modifications: 5mC at -11a, -10b, +10a, +11b
With B6, the Kd in data set [6] turned out to be 127 nM.

B7: C1234_Me-5b/-2b (dsDNA)
DNA 1: TCAAAACGTCGTGAGACAGTTTGG
DNA 2: CCAAACTGTCTCACGACGTTTTGA
modifications: 5mC at -5b, -2b
On to B7, for which the Kd in the data set with I-CreI wild type [2] is more than 1000 nM.

B8: C1234_Me-5b (dsDNA)
DNA 1: TCAAAACGTCGTGAGACAGTTTGG
DNA 2: CCAAACTGTCTCACGACGTTTTGA
modifications: 5mC at -5b
Turning to B8, in the data set with I-CreI wild type [3], the Kd is 24 nM.

B9: C1234 (dsDNA)
DNA 1: TCAAAACGTCGTGAGACAGTTTGG
DNA 2: CCAAACTGTCTCACGACGTTTTGA
On to B9, for which, in the data set with I-CreI wild type [7], the Kd was not above 2.5 nM.

B10: C1234_Me-2b (dsDNA)
DNA 1: TCAAAACGTCGTGAGACAGTTTGG
DNA 2: CCAAACTGTCTCACGACGTTTTGA
modifications: 5mC at -2b
In the data set with I-CreI wild type [3], B10 showed a Kd of 40.8 nM.

B11: C1221_1Me (dsDNA)
DNA 1: GGGGTCAAAACGTCGTACGACGTTTTGAGGGG
DNA 2: CCCCTCAAAACGTCGTACGACGTTTTGACCCC
modifications: 5mC at 1 CpG on both strands
Take B11: the activity with I-CreI D75N is ~3 fold increase of C50.

B12: C1221_3Me (dsDNA)
DNA 1: GGGGTCAAAACGTCGTACGACGTTTTGAGGGG
DNA 2: CCCCTCAAAACGTCGTACGACGTTTTGACCCC
modifications: 5mC at 3 CpG on both strands
As for B12, the activity in the data set with I-CreI D75N is > 10 fold increase of C50.

B13: C1221_2Me (dsDNA)
DNA 1: GGGGTCAAAACGTCGTACGACGTTTTGAGGGG
DNA 2: CCCCTCAAAACGTCGTACGACGTTTTGACCCC
modifications: 5mC at 2 CpG on both strands
On to B13, for which the activity with I-CreI D75N was > 10 fold increase of C50.
